# Results taken from the supplement of paper PMC12636428.
# Tested on: Saccharomyces cerevisiae
# Assay: transcriptional activation domain activity (GFP:mCherry ratio, weighted mean of sorted bins, harmonized to initial dataset scale) (arbitrary fluorescence ratio units); higher = stronger transcriptional activation
# Settings: beta-estradiol 1 µM; induction time 4 h
# Method in brief: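 The listed activation activity is a read-weighted mean of bin median fluorescence, averaged across barcodes and linearly mapped onto the initial dataset scale. Barcoded tiles, fused to an estradiol-inducible synthetic transcription factor, were integrated at URA3 in yeast diploids bearing a GFP reporter. Cells were held 4 hours at 30 °C in SC with 1 uM beta-estradiol, sorted into 8 GFP:mCherry bins, and sequenced, and tiles with fewer than 50 reads were excluded.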
row,Sequence,transcriptional activation domain activity
1,METPEQPSAGRRRPHRKSRTGCAECRRRRIKCDEVKPACTACVRHDHPCVYPS,22000
2,FPFSLLVLLIFYVFSFVFVICYMGILGAQYVYFYFSYIFDCHPLPLLRRLSFF,36900
3,SRLFDLQLNICLSFQVYWFRNLVDGFPLDIPPLHIASFFGLVEPLTALLKSLG,33100
4,ATIMYLGLCITFLPFLVIYVIYNICSAFYVVLLGLGLLVYWLTRNSRLLKWAF,45800
5,IETLYRLVTTHSGQDYFIQSVHHGILLLNLLYMDIPYFTEWVGLSCQLYNVIT,27700
6,MSWPFFYLSFSLFFPPLLLDRGLLLLCGFFFLFLYIFLPGILWHLEAWFFLLV,59300
7,LLQSSKEDIPFINANLAFPDDNSTNIQLQPFSESQSQNKFDYDMFFRDSSKEG,80700
8,VLLVVMFFGVLHKRNATHLWNLLYFQGLFWILAATMTELPSVVCLPYSPPLRC,57400
9,MPRPFSFFFSFLLFLLFFFSIFFIFLFLLFFFLVKGIWTTYKYVLVTCLYLVI,32700
10,LSLLVLGCWIPCIVVMEGYLRSLTFESFPYPGLYCFTSQGSHIVYLCWVLVAV,46200
11,AILLFIELASMGGFTWHLLSGLFFGDVCLIYMDLDDTLFFLFVLVALFSQSFV,46700
12,YVVLQGLSGAASGFLQIVPLIIYYVKLFLMGSTPRSVYKIKYTLRHVSWGTLF,66600
13,MLVSVANLHYFFFPLSFGVCVLRYSSLAMCFFCIYCCLVTMLCILLLLLWSTI,39800
14,GDAGGSSAAEQREAGQERRQRRGAERRQRQSVFEQLGGAEQRGAGRGSAGRGG,< 6570
15,MGNVQRWAVAIKNVIAVLVVCLRFITDTFIIATSEYPRGGFLVLLHIRMLFML,81400
16,MCFFSFFLFLLRIWLLFCLLLSIPLGFRMRSWGVPTAFVTILHFSLVMHLITV,59900
17,NRNQDAAEPSAAASSSAAAPAETPARGGNRQNDGANNQGGNNQNNGGNNRQQE,41100
18,EKTEKKAKAPKSPKKEKKKEASETAAAPATEEPAKEAAKEEAAPATEAPAATE,31300
19,DETLAYIARRHNYTGKSLILPPTEITLRFFAHVARVMELSMADLLIALVYVRR,50100
20,MPCLCHFWMTCLCHFRMPLFFYFQMPCLCHFWMTCLCHFLMPCLFYFWMPFLC,43200
21,MIKFSLLIFLIVFILDYLIFFCFFFFFLFFYFFIQFTLFMVCGGDLIYGFING,43200

row,Sequence,transcriptional activation domain activity
1,QHLRSDPQMRLWLVMFLFLTFMVHTILSATLSIIFVSITYSLFWLPQIVRSAR,30800
2,IGQFRFLQRLVLVHGRWSYRRLAETISNFFYKNMIWTFSIFWYQVFCNFDITY,24600
3,MCISRYWICLGKGSVLGYHSFIICFYLGLVEMMGYPLFAFFSLLFIRFLLFLS,43700
4,LMFLVLIVSNLRLMIENFRKYGVLICIRCHDYRRQDVVYGSILYFLVPCHLFV,73100
5,AESGGESAGNASGEDFAAPKKKSSRSRIKKALQSLGSGKLSPKNSRTPKASPV,28400
6,DFLLSLHGIRTVYLFMFVINSFLHPLRTLIHLWCLIFISVYQHRLFFFFFFFF,61200
7,FFHVTIRVASQSCGIAFGILGFSNFRVFLAYLILGAEGYFTLVLCAFRFLISW,61100
8,LVDVFGRIESCFQRIGIYTRVPPTTEMMDMIIQIMVEVLTILGIATKEMKQSR,63000
9,MGGKASWCVFSFCLLFPLYFLLSLPPSFFIFHFYCVLALLPLPLPFPFFPSIC,58700
10,ATCPSFFRSICSTYYDNFVFVWDAVAAFLVPYQRYTYYPIMGIARFNLYLLSW,52400
11,MYCMRYFAPLFLLPFPDAPPFFVVLSLISFFLHQKPCIYCVFLLLALFSSTCY,61400
12,IHEPDQPLFSSFFSFFFVSFLSLIPPPLFPSSFPFLLFLPFLPPSLSLLSLIF,35500
13,EAYPEPEEEPTMEPIDLSDDALLQVSYRLQKQNLSSSIVLLLTNRCLFISKPY,49400
14,MAPWDDAPAPFAADGDADDVTGSELAERFNKESGKVNAQLSAFPSALLCGRDK,61900
15,CLCLILLALLAVELMALFVVITLVILLLIVIVLSLILLFANLMLPLVFLLLYI,26400
16,PMRLHVDHVHVVGRPFLWYIIVAMCDNVTHVVLSFSGLTYYTTSRWFESIPYR,61200
17,HVDSYLRYLISHCKGRISSRGLVTARFLERRMRHLVWLLKVECVKWEYSPYTR,79400
18,IVSPFSTSVRSVSSCVELIRQGRGALATSITGYKYLILYGQVMMMLKIFTFYF,55600
19,MYHPPWVLVGKCGSKEVRDELARHQLIACSRDLSVHVLKVDLLRKSWLLGHWR,58900
20,MLLTVYMFIIVCTCLAQLKIQSLSFLIYYHYINLVLLLLIAGLLYGLSFVRFS,48500
21,KKQEERKEGYRRKVEENKEKREGREKREKDEFWRREGKKRRYQEGDGAGAGAG,38100

row,Sequence,transcriptional activation domain activity
1,CRESRGNRGTGEGGAGEQGKGEQGKGEQGKGEQGNRGRGSRETGEGGAGKQGN,29800
2,MYHIVIIIPLCLLLFGPFILATDSPFCIVRHPFFFFFLFYQSFIAFTFFFFFT,62700
3,ESKNKAEEETEEGEGARGEEEEEEKEEQGESDNEDANSAEADKTKSKQGKKQR,31900
4,DTPFALHTLLIMHGHILLCENAKVSLDSSDTLNIFVPLVTVLINRLTNRKEYS,32800
5,AREIISAGWAKVHDSGSRRNANSQPEEEEEGGWKAKLRELQEEAKAAARGVWG,35300
6,TTGCREGFDWTPLSSVRYGGICGGRLFSICHTTFEGLAIIGMPNILICNYNVT,43300
7,GFRNFVERLTFCLLEDRVRIAMMQPEQPRYLHSFVSSVMGLNWMVQRWLCLPR,47600
8,MPPLLQLRLVHFLQLCLLLLLLLLRLHLLELLHFLLVFLLHRSILLLCQICSL,54800
9,IHILHGTLQTIIAHSRAPHFLHVPCMRLPLLLLLIPPLYFEYCLLLLSPFFFA,51200
10,TPKKAKKSAERVDDSDASDDGDGYGGGGGEDGRKRAAKPKKGKRAAAGGGSAG,26200
11,AVGYIWYIPFYHYNYSILRAGMMTNFFWASLCLVYSNIRPYSEIGIVYLLLCP,69800
12,EDEEDLSSKPRCQRCRKSKKGCDRQRPCQRCKDAGLSADQCVSEDEGNGRKGR,15700
13,KQSWSYFYKVLQGLLMDLFFIITIPIYFYYYLPNWNPPLWTLLDFTTLESLNF,69000
14,MSIFFSVIPPFFSFLPLMLFFFFFLGCLGNGSTFFVSTLLWMGGSIGLLSFYS,55600
15,RTMGKQDPYCAMRLGKEAKKTNTDRRGGQTPRWDQELRFTVHDSPDYYKLKCS,44300
16,PVLEQKRCIRAMEEMIILCKEYIRIARPQISACLISALSFDELRATAFSCWVA,48700
17,SHTAEPSDADGEGTRATRRAKTKSKSTGKSREAGKRSNGARKGGGRADSGGKD,46800
18,RVVLRCLFLAYECIEEADVKSTLSYTIEVAFNLITSTCDYIGPVAMSHALRAG,53900
19,KSYVAILGYIMYPPTTRLVIHIRVWADALRALSSQAMLKTYLLTRGYQFRSIV,58900
20,AAKGKAAAGGGTKKKGTAGAEAETPEMATPAPEGAPNAPAKKRAKKATAAAAA,36400
21,MLMVLFSIFSTMPSPVYIIILFPSFLTFFFRYILSTVLGLWTFAFHLIPNSCW,65200

row,Sequence,transcriptional activation domain activity
1,YREIPPEQLHGFPRIVDDINYNPVFLFDTFAAYTTLINYWMHMLILRSNTFLL,53100
2,SDVEDEESSEDEAPARGKKRGRAGQAAKRRRESSLLVTVFADVLVTDVSVFVG,59400
3,MLYFFFFYVYNVNIKQYLSIIMILFINGFSFYIYFLFHFLYIFFFFFLTITLS,88500
4,APDQPLTTQGKPRTRVYVACIQCRSRKIRCDGAKPVCHNCSHRASSAVGGVLE,18000
5,RSKSSDESSSDSDSDSGSESGSDSDTSRRKRSKSKSSSRSKSKSKSSKLRARS,10600
6,MASSTPRVRSLYRRLLRELPTHPSATPNTTTAASRTTPSKYRSTAHQKLSAPS,31700
7,LYKSYKHAFHDWIYRLYYYLYHCLVELGLSSAAVDIFRACLPSVKMGNIALTY,63000
8,NWHHSIQVPYSFVANYDHPVCHMLHRWLPLYIPAVALRMHILTYLLLVAFFSL,57700
9,FAELRRARAGCFFFFFFLFFPFFSFFYFFLLFLFLFLPPFPFLSFPFFSLCVL,56100
10,MTWFGILPPFSWPWIYPRSFGMCGNLSTTLFLHVLIALFFFFCLFFHLCLLWL,50200
11,EYVRETTPEKEGGGRRRQKREDVTSGEEDAPDAVEKGKKRKRSAAGGAGAGKK,48300
12,LGTEVVTLEDEIYYIWVRYYSIALLVFDTPNSHLCHSRNNLGQLVAVINVFLF,46300
13,LAHFVIHRGLIISIMQAVFSAIFYFAPIALYQGMLLVGYTTVYTMWPLFSLVL,58500
14,ISLLTLSFFYCFLGVFLPGFSLSLLPFPLFCFFLAFFLPCFSLSLLPFYPFFF,56500
15,RRVTSMRLDTEGYVGVLGVEVDFRGRMFDLTADILVRVRYCLQSTILLLEIPL,55100
16,MFHSIYLVVPSFHPSHALIVSFLFSLLRITLHLLLHFLVLYLLLCILFFWHPE,43100
17,EGKPVAAEGVKDSWDASSDEEGSNPAPAPAPAAKAKPSQKANGTHVPISESQT,40500
18,MIRWVFFRGYLGQEGFLSFLFFFVFFSGLSLWERIGYGFFILPSFYMDLLFLA,58300
19,ALGLLFVCEQIELYPQTARIFGLRLIYVILLLHLFLPFTDSLPWLKTLFSILT,54600
20,SSPSIQTASSVSTVLVVGSNDKTVKDVGEGLKTKLGVKGGGKGPRWSGKFIGV,19700
